Measured values as given in patent US20110190477A1 (G2 INFLAMMATION, published 2011).
Residue numbers refer to the chain shown, from its start. “And” between values parts separate entries of the source, which are not always exact repeats. Identical values can stand only once.

T1: human C5a receptor (human, UniProt P21730 1-350)
T1 chain: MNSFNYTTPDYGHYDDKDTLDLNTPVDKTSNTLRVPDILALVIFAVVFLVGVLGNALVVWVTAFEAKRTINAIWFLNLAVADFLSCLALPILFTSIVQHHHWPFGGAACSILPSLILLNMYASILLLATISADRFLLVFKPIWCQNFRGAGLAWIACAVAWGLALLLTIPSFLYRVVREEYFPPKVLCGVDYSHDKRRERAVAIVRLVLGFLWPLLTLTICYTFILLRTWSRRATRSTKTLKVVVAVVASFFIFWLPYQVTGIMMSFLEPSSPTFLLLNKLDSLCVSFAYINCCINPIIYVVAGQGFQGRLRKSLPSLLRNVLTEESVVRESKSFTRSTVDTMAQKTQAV

B1: humanized anti-C5aR antibody hAb-G (antibody, human IgG4 S228P, kappa)
light: DVVMTQSPLSLPVTLGEPASISCRSSQSLVHSNGNTYLHWYLQKPGQSPQLLIYKVSNRFSGVPDRFSGSGSGTDFTLKISRVEAEDVGVYFCSQSTLVPLTFGQGTKLEIKTVAAPSVFIFPPSDEQLKSGTASVVCLLNNFYPREAKVQWKVDNALQSGNSQESVTEQDSKDSTYSLSSTLTLSKADYEKHKVYACEVTHQGLSSPVTKSFNRGEC
heavy: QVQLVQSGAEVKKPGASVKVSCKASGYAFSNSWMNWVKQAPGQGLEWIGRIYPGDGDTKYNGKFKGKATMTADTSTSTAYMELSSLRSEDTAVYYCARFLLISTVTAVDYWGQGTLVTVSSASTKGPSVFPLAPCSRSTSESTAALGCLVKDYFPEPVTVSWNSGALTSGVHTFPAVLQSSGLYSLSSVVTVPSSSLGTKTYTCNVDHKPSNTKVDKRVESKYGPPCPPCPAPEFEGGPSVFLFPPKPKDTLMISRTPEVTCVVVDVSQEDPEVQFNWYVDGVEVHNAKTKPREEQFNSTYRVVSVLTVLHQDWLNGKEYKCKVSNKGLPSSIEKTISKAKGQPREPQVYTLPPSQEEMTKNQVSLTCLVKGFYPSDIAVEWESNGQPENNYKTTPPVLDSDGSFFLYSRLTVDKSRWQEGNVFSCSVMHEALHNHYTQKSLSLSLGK
notes: also called antibody G
B2: humanized anti-C5aR antibody hAb-K (antibody, human IgG4 S228P, kappa, V domains shown)
VH: QVQLVQSGAEVKKPGASVKVSCKASGYAFSNSWMNWVRQAPGQGLEWMGRIYPGDGDTKYNGKFKGRVTMTADTSTSTVYMELSSLRSEDTAVYYCARFLLISTVTAVDYWGQGTLVTVSS
VL: DVVMTQTPLSLPVTLGQPASISCRSSQSLVHSNGNTYLHWCLQKPGQSPQLLIYKVSNRFSGVPDRFSGSGSGTDFTLKISRVEAEDVGVYYCSQSTLVPLTFGQGTKLEIKT
B3: humanized anti-C5aR antibody hAb-C (antibody, human IgG4, kappa)
light: B1 light with E17Q, Y41F, L42Q, K44R, Q50R, F92Y, Q105G
heavy: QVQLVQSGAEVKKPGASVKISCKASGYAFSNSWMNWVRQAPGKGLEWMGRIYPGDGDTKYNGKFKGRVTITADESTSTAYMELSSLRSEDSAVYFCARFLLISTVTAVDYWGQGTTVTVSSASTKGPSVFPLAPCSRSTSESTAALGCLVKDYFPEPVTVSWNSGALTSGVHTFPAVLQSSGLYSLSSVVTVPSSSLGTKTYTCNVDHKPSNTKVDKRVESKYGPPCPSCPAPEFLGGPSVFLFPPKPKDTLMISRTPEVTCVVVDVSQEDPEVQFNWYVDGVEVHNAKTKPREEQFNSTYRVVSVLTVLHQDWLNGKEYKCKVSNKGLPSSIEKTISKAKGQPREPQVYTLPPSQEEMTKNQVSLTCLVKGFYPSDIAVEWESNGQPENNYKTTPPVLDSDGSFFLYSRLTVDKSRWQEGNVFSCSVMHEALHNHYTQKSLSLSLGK
notes: also called antibody C
B4: humanized anti-C5aR antibody hAb-N (antibody, human IgG1, kappa)
light: B1 light
heavy: not shown
notes: IgG1; also called antibody N
B5: humanized anti-C5aR antibody hAb-O (antibody, human IgG1, kappa)
light: B1 light with E17Q, Y41F, L42Q, K44R, Q50R, F92Y, Q105G
heavy: not shown
notes: IgG1; also called antibody O
B6: humanized anti-C5aR antibody hAb-F (antibody, human IgG4 S228P, kappa)
light: B1 light with E17Q, Y41F, L42Q, K44R, Q50R, F92Y, Q105G
heavy: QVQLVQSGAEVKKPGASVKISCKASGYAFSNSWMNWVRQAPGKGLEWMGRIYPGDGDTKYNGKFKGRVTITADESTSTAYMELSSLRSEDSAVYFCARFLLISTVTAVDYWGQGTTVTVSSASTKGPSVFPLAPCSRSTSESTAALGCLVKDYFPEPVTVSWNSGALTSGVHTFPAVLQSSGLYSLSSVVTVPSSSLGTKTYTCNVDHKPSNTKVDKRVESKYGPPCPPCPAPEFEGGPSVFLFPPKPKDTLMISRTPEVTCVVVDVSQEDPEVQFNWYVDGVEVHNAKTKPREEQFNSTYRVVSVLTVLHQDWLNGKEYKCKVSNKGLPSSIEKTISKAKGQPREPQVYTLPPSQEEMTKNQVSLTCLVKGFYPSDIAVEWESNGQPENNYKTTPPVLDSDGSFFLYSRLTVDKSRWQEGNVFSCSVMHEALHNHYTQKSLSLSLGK
notes: also called antibody F
B7: humanized anti-C5aR antibody hAb-M (antibody, human IgG4, kappa)
light: B1 light
heavy: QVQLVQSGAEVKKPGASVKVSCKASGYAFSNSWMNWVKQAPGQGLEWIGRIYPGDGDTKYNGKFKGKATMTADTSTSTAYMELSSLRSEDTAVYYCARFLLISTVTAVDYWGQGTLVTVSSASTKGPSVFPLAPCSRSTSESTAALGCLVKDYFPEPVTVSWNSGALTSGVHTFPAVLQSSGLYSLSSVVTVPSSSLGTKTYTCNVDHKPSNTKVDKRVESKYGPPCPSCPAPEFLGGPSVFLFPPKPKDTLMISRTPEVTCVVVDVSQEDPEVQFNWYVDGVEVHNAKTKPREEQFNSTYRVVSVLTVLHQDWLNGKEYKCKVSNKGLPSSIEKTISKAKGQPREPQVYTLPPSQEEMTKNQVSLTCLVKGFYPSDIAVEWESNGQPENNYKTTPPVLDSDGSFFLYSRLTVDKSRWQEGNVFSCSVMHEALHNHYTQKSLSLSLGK
notes: also called antibody M
B8: humanized anti-C5aR antibody hAb-S (antibody, human IgG4 S228P, kappa)
light: DVVMTQSPLSLPVTLGEPASISCRSSQSLVHSNGNTYLHWYLQKPGQSPQLLIYKVSNRFSGVPDRFSGSGSGTDFTLKISRVEAEDVGVYFCSQSTLVPLTFGQGTKLEIKRTVAAPSVFIFPPSDEQLKSGTASVVCLLNNFYPREAKVQWKVDNALQSGNSQESVTEQDSKDSTYSLSSTLTLSKADYEKHKVYACEVTHQGLSSPVTKSFNRGEC
heavy: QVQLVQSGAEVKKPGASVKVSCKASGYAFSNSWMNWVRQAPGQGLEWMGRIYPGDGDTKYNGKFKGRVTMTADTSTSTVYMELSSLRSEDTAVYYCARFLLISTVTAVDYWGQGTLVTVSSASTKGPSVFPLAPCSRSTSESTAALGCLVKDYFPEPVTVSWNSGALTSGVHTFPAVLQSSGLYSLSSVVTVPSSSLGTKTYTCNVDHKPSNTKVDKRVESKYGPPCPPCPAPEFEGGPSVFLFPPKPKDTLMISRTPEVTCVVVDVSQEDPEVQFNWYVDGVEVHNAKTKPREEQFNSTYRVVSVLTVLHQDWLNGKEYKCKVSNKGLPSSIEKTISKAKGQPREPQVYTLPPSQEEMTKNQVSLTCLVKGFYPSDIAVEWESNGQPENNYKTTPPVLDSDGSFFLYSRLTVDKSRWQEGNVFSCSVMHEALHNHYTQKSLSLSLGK
notes: also called antibody S
B9: humanized anti-C5aR antibody hAb-A (antibody, human IgG4, kappa, V domains shown)
VH: B2 VH with V20I, Q43K, M70I, T74E, V79A, T91S, Y95F, L116T
VL: B2 VL with T7S, Q17E, C41Y, Y92F
notes: also called antibody A
B10: human C5a (ligand, UniProt P01031 678-751, looked up)
chain: TLQKKIEEIAAKYKHSVVKKCCYDGACVNNDETCEQRAARISLGPRCIKAFTECCVVASQLRANISHKDMQLGR
modifications: tracer form: 125I-Bolton-Hunter label
notes: C5a is a fragment of it; also called hC5a; recombinant human C5a

Molecular target: T1, human C5a receptor
Experiment: cell-based or functional assay

In order of rising “blocking of human neutrophil migration towards C5a at 5 µg/ml antibody” value:
1. B2  55%
2. B3  75%
3. B1  84%

Molecular target: T1, human C5a receptor
Experiment: cell-based or functional assay
Remark: another data set of the same source

In order of falling “Ab conc. effective at blocking C5a-induced Ca2+-flux (human neutrophils, 1 nM C5a)” value:
1. B1  30 µg/mL
2. B7  30 µg/mL
3. B5  10 µg/mL

In order of rising “Ab conc. tested but not effective at blocking Ca2+-flux (human neutrophils, 1 nM C5a)” value:
1. B4  0.01 µg/mL
2. B6  10 µg/mL

Molecular target: T1, human C5a receptor
Experiment: 125I-C5a displacement, human neutrophils
Description: (§1) The ability of humanized Abs to inhibit ¹²⁵I-labelled C5a binding to L1.2 cells transfected with hC5aR gene or human neutrophils was tested as described below. Recombinant human C5a was obtained from Sigma Chemical Co. (St. Louis, Mo.). ¹²⁵I-Bolton-Hunter-labelled complement C5a was purchased from NEN-Dupont (Boston, Mass.), with a specific activity of 2200 Ci/mM. Briefly, L1.2/hC5aR stable transfectants were grown for several days prior to an experiment then treated overnight with 5 mM butyric acid to stimulate hC5aR expression prior to the binding assay. Human neutrophils were purified from venous blood collected from healthy volunteers. Neutrophils were separated from other leukocytes by percoll density centrifugation followed by a red blood cell lysis step. Both cell types were washed once in PBS and resuspended in binding buffer (50 mM Hepes, pH 7.5, 1 mM CaCl₂, 5 mM MgCl₂, 0.5% BSA) at a concentration of 1×10⁷/ml. Aliquots of 40 μl (4×10⁵ cells) were dispensed into 96 well microtitre plates, followed by the addition of cold competitor (antibody or human C5a). Cells and cold competitor were incubated for 15 min at room temperature before-radiolabelled C5a was added to a final concentration of 0.4 nM. The final reaction volume was 120 μl. After 60 min incubation at room temperature, the cells were washed three times with 150 μl of binding buffer containing 0.15 M NaCl. Cell pellets were then counted on a TopCount Scintillation Counter (Packard). Samples were assayed in triplicate at each of 6-8 concentrations. Each antibody was tested in at least 3 separate assays. The number of counts in each sample was expressed as a percentage of the maximum ¹²⁵I-C5a binding observed in wells with no added cold competitor after subtraction of background.
(§2) Results of this analysis (the displacement curves) for each of the humanized antibodies compared to the mouse antibody 7F3 in human neutrophils and L1.2/hC5aR transfectants are given in FIGS. 11 and 12 respectively. […] These values were obtained using Graphpad Prism software fitting the data to the non-linear equation for one site competition.

In order of falling EC50:
1. B7  4.05 nM
2. B1  3.52 nM
3. B8  2.69 nM
4. B6  2.55 nM
5. B3  2.48 nM
6. B4  0.65 nM
7. B5  0.48 nM

Molecular target: T1, human C5a receptor
Experiment: 125I-C5a displacement, L1.2/hC5aR transfectants
Description: as §1, §2

In order of rising EC50:
1. B5  0.68 nM
2. B3  0.9 nM
3. B7  0.95 nM
4. B4  1.03 nM
5. B6  1.26 nM
6. B1  1.53 nM
7. B9  2.78 nM

Molecular target: T1, human C5a receptor
Experiment: 125I-C5a displacement by cold C5a, human neutrophils

B10 was tested, and the EC50 was 0.5 nM.

Molecular target: T1, human C5a receptor
Experiment: saturation binding to human neutrophils at 4 C, flow cytometry
Description: Human neutrophils, isolated as described above, were resuspended in dPBS and 1×10⁵ cells (in 25 μl) were dispensed into wells of a 96-well plate. An equal volume (25 μl) of 2× antibody (diluted in PBS) was added to each well. The final antibody concentration using 2-fold serial dilution ranged from 40 to 0 ug/ml (using unlabelled hAb-Q, hAb-J and 7F3). Cells and antibody were incubated for 20 min times at 4° C. After incubation, 100 μl PBS+1% BCS was added to each well and the plate centrifuged at 2,000 rpm for 3 min. […] The cells were washed once as above and resuspended in PBS+1% FCS for analysis by flow cytometry. FSC v SSC scatter was used to identify neutrophils, with the Median Fluorescence Intensity (MFI) determined for each sample. EC50 values were determined by fitting data (MFI—background vs log₁₀[antibody concentration]) to the sigmoidal dose-response (variable slope) i.e. 4-parameter logistic equation using GraphPad Prism (v4.0) software. Bₘₐₓ and KD were determined by fitting data to the one-site binding hyperbola equation.

B4 was tested, and the EC50 was 20 nM to 25 nM (2×) and ~3 µg/mL.

With B4 the Kd was 20 nM to 25 nM (2×) and ~3 µg/mL.
